Results on two molecules are retold here after patent US12215162B2, “BAFF-R targeted chimeric antigen receptor-modified T-cells and uses thereof” (CITY OF HOPE, priority 2016, dated 2025).

For data set [1], the target named is T1, recombinant extracellular domain of human BAFF-R (Homo sapiens, UniProt Q96RJ3).
T1 construct: The antigen was commercial, recombinant extracellular domain of human BAFF-R; purchased
Briefly: Biacore analysis of binding affinity of humanized BAFF-R antibody variants. The source says:
The chimeric antibody, clone 90, was humanized while retaining its binding specificity and cytotoxic effects. Through computational analysis of the CDRs and predicted structure, three variants of the heavy and three variants of the light chain were produced with varying degrees of likeness to human antibodies. A total of nine combinational variants was constructed from the humanized heavy and light chains.
The chimeric anti-BAFF-R antibody C90 was humanized with several variants. The humanization process took into consideration and analysis of the variable region and specifically the CDRs of the chimeric antibody. From there, three variants for each heavy and light chain was developed with varying degrees of human-likeness ranging from 1 the most human to 3 the most conservative to the chimeric. The variants were combined to produce 9 variants. Biacore analysis was performed on each variant as well as the chimeric parental C90 to determine their equilibrium dissociation constant KD. The antigen was commercial, recombinant extracellular domain of human BAFF-R.

The test system of data set [2] is primary CLL and MCL samples. Nature of the data set: ADCC against primary samples from rituximab-treated patients. Type of data set: cell-based, human. As to conditions: CLL (n=3) and MCL (n=2), E:T 20:1. The procedure: FIGS. 3A and 3B are graphs showing BAFF-R monoclonal antibodies induce in vitro Antibody Dependent Cell-Mediated Cytotoxicity (ADCC) against primary B-cell tumors. Antibody-dependent cell-mediated cytotoxicity (ADCC) effects were measured by chromium-51 release after incubation with C55, C90, or rituximab and effectors (NK cells). […] Data are shown as the mean±s.d. of triplicate samples. *P<0.05 compared with NK cells by two-tailed Student's t-test.
(§1) Cytotoxicity assays. Target cells (L cells, human tumor lines, primary patient samples) were labeled with chromium-51 (51Cr, Perkin Elmer, Waltham, MA) for a 51Cr release assay. Briefly, antibodies and effectors (NK cells or complement serum standard [Sigma Aldrich, St. Louis, MO]), were added to labeled target cells and incubated up to 18 hours. NK cells were enriched from PBMC (NK cell enrichment kit, Stemcell Technologies, Vancouver, Canada). 51Cr released into supernatant was detected with a Wizard Automatic Gamma Counter (Perkin Elmer).

Data set [3] concerns BAFF-R-expressing L cells and JeKo-1. Nature of the data set: ADCC chromium-51 release assay with NK cells. Type of data set: cell-based. As to conditions: NK cells E:T 20:1; controls parental L cells and U266. How it is done: Antibody-induced cytotoxicities measured by chromium-51 release after incubation with C55, C90, or rituximab and effectors (NK cells or complement containing serum). NK effector cell to target ratio (E:T) of 20:1. […] Data are shown as the mean±s.d. of triplicate samples. *P<0.05 compared with NK cells by two-tailed Student's t-test.
FIG. 12 is a graph showing chimeric antibodies induced ADCC against BAFF-R expressing L cells. BAFF-R-expressing D2C L cells (targets) were labeled with chromium-51 followed by incubation overnight with chimeric mAb+NK cells (effector to target ratio, 20:1). Culture supernatant was analyzed for released chromium.
as §1

The subject of data set [4] is JeKo-1 (MCL). Briefly: In vivo JeKo-1 MCL tumor model, antibody treatment. The arrangement: species or system NSG mice. As to conditions: 200 μg antibody + NK-92-176V cells + IL-2 IV, vs PBS or NK cells alone. The text has this: (§2) FIG. 4A is a schematic showing treatment schedule following Day 0 tumor challenge with minimum lethal dose of tumors. Treatments were given by IV tail vein injections. FIGS. 4B and 4C are images showing chimeric antibodies targeting human BAFF-R elicited in vivo therapeutic effects against B-cell tumors. Bioluminescence images of mice challenged with luciferase-expressing tumors: JeKo-1 (MCL) (FIG. 4B) or RS4; 11 (ALL) (FIG. 4C). Experimental groups received treatment of chimeric BAFF-R mAbs (C55 or C90, as indicated). Control group mice received PBS, NK cells alone, or rituximab on the same schedule. Data are representative of three independent experiments.
(§3) In vivo studies. For tumor models, stable, luciferase-expressing tumors lines were established for bioluminescent imaging in mouse models. Briefly, a luciferase gene was introduced into tumor lines by a lentivirus gene delivery system (pLenti7.3/V5-DEST Gateway Vector Kit, Life Technologies, Carlsbad, CA). The minimum lethal dose per mouse was determined for each tumor cell line by dose titration. Tumor cells were injected intravenously (IV) and mice were monitored by in vivo bioluminescence imaging for minimum tumor dose to ensure engraftment. Minimum lethal tumor doses were 1×10^6 JeKo-1, 5×10^5 RS4; 11, 5×10^5 JeKo-1-CD20-KO, or 2.5×10^4 Z-138 cells. […]

The subject of data set [5] is Mino cells. Briefly: Internalization of antibody on Mino cells. Type of data set: cell-based, human. The conditions noted are these: 37° C. for 1 hour. How it is done:
Mino cells were incubated with mAb C90 (0.05 μg/10^6 cells) at 4° C. for 20 minutes followed by incubation at 37° C. for 1 hour. Flow cytometry analysis was performed with anti-mouse IgG-APC. Cells were gated for surface localized antibodies (OUT) and loss of cell surface staining (IN).

For data set [6], the system named is Z-138. Nature of the data set: In vivo ibrutinib-resistant Z-138 tumor model, antibody treatment. The conditions noted are these: vs PBS or NK only. Details: species or system NSG mice.
From the text: (§4) FIGS. 6A and 6B are images and FIG. 6C are graphs showing chimeric antibodies targeting human BAFF-R elicited in vivo therapeutic effects against drug resistant B-cell tumors. Bioluminescence images of mice challenged with luciferase-expressing tumors JeKo-1-CD20-KO cells (FIG. 6A) or ibrutinib-resistant Z-138 cells (FIG. 6B) followed by antibody treatments as in FIG. 4. Control group mice received PBS, NK cells alone, or rituximab on the same schedule. […] Tumor free rate and survival differences between experimental and all control groups were analyzed by log-rank test (** P<0.001). Data are representative of three independent experiments.
as §3

Data set [7] has as its system RS4; 11 (acute lymphoblastic leukemia, ALL). Nature of the data set: In vivo RS4;11 ALL tumor model, antibody treatment. Details: species or system NSG mice. As to conditions: 200 μg antibody + NK-92-176V cells + IL-2 IV.
From the text: as §2, §3

Data set [8] deals with JeKo-1-CD20-KO clone 25. Nature of the data set: ADCC against rituximab-resistant JeKo-1-CD20-KO. In kind it is cell-based, human. As to conditions: NK cells E:T 20:1. How it is done: FIGS. 5A, 5B and 5C are images or graphs showing chimeric BAFF-R antibodies induce ADCC on drug resistant lymphoma models in vitro. FIG. 5A is a scatterplot of FACS analysis showing CD20 binding on JeKo-1 cells following CRISPR/HDR knock-out of CD20 gene. CD20 expression on selected CD20−/−clone #25 compared to WT JeKo-1. ADCC effects measured by chromium-51 release after incubation with C55, C90, or rituximab and effectors NK cells (E:T=20:1). Percentage of cell specific lysis of target cells: rituximab-resistant JeKo-1-CD20-KO (FIG. 5B) and ibrutinib-resistant Z-138 and SP49-IR (FIG. 5C). All data are representative of two or more identical experiments. Data are shown as the mean±s.d. of triplicate samples. *P<0.05 compared with NK cells by two-tailed Student's t-test.
as §1
Generation of JeKo-1-CD20-KO. […]

The subject of data set [9] is JeKo-1, SU-DHL-6, Raji, and RL. Nature of the data set: Flow cytometry binding to non-Hodgkin lymphoma lines. The arrangement: species or system human. The conditions noted are these: Alexa Fluor 488 conjugated chimeric antibody. The text has this: FIGS. 1A, 1B, 1C, 1D and 1E are FACS images showing generation and specificity of novel monoclonal antibodies against human BAFF-R. FIG. 1A is a FACS analysis of cell surface expression of hBAFF-R-GFP fusion protein in mouse fibroblast L cells. Gated on GFP-positive cells, engineered L cell clone (right plot) is compared to parental L cells (left plot). Clone D2C was selected for further studies. FIGS. 1B, 1C, 1D and 1E are FACS traces of fluorescent counts of anti-BAFF-R antibodies binding cell lines and patient samples. […] BAFF-R-negative 293T embryonic kidney cell line was used as a control. […] Parental L cells and secondary anti-hIgG-APC antibodies only were used as controls. […] The data are representative of three independent experiments. For all of FIGS. 1B-1E, the traces from top to bottom as shown in the figures correlate with the variables (e.g., antibody type or cell type) used from top to bottom shown below or next to the figures.
FIG. 10 are results of FACS analyses showing hBAFF-R mAbs recognized non-Hodgkin lymphoma cell lines in vitro. […] The traces from top to bottom as shown in the figures correlate with the variables (e.g., antibody type or cell type) used from top to bottom shown next to the figures.

For data set [10], the system named is JeKo-1-CD20-KO. Nature of the data set: In vivo JeKo-1-CD20-KO tumor model, antibody treatment. The arrangement: species or system NSG mice.
From the text: as §4, §3

B1: Humanized HC1 + LC1 (antibody, V domains shown)
VH: QVQLQESGPGLVKPSQTLSLTCTVSGDSITSGYWNWIRQHPGKGLEYIGYISYSGSTYYNPSLKSRVTISRDTSKNQFSLKLSSVTAADTAVYYCASPNYPFYAMDYWGQGTLVTVSS
VL: EIVLTQSPATLSLSPGERATLSCRASESVDNYGISFLNWFQQKPGQAPRLLIYAASNRATGIPARFSGSGSGTDFTLTISSLEPEDFAVYYCQQSKEVPWTFGGGTKVEIKRTV
As to B1, in data set [1], the kdis came out at 0.0024 s⁻¹ and the kon was found to be 610000 M⁻¹ s⁻¹.

B2: C55: chimeric mAb from clone 55 containing human IgG1 constant regions (antibody, V domains shown)
VH: QVTLKESGPGILKPSQTLSLTCSFSGFSLSTSGMGVGWIRQPSGKGLEWLAHIWWDDDKYYNSSLKSHLTISKDTSRNQVFLKITSVDTADTATYYCARSFGYGLDYWGQGTTLTVSS
VL: DIQMTQTTSSLSASLGDRVTISCSASQDISNYLNWYQQKPDGTVKLLIYYTSSLHSGVPSRFSGSGSGTDYSLTISSLEPEDIATYYCHQFSELPWTFGGGTKLEIK
With B2, the “killing by ADCC” value in [2] is on record as “sensitive to killing by ADCC”. Also, the “antibody-dependent cell-mediated cytotoxicity (ADCC)” value in data set [3] is “elicited antibody-dependent cell-mediated cytotoxicity (ADCC) specifically against BAFF-R-expressing L cells and JeKo-1”. For the same molecule, the figures for the “tumor growth (bioluminescence)” value in data set [4] and in data set [7] were “significant retardation of tumor growth” and “markedly retarded tumor growth”, respectively. The “internalization upon binding BAFF-R” value in data set [5] is reported as “limited internalization”. Further, in data set [6], the antitumor effects entry is given as “significant effects”. Besides, the “sensitivity to antibody-mediated cytotoxicity” value in [8] is reported as “retained sensitivity”. Also, in [9], the “direct binding to NHL lines” value is reported as “exhibited direct binding”. For the same molecule, the “tumor free and long-term overall survival” value in [10] (80-day) is recorded as “significant antitumor effects”. Also, the “tumor burden by bioluminescent imaging” value in data set [10] (Day 20) was “no visible tumors”.

By kon is commonly meant the second-order rate constant of association.
